This note sets out measurements from patent US10946092 (BEIJING MABWORKS BIOTECH, dated 2021).

One may read the EC50 as the concentration giving half of the maximal effect.

Test [1] addresses T1, hLAG-3-hIg fusion protein (human LAG-3 extracellular domain fused to human Fc); Sino Biological, Cat #: … (human, UniProt P18627 23-450).
T1 construct: extracellular domain; Bought protein; also called LAG3 fusion protein; human LAG3(ECD)-hFc; not shown: human Fc
T1 sequence (looked up): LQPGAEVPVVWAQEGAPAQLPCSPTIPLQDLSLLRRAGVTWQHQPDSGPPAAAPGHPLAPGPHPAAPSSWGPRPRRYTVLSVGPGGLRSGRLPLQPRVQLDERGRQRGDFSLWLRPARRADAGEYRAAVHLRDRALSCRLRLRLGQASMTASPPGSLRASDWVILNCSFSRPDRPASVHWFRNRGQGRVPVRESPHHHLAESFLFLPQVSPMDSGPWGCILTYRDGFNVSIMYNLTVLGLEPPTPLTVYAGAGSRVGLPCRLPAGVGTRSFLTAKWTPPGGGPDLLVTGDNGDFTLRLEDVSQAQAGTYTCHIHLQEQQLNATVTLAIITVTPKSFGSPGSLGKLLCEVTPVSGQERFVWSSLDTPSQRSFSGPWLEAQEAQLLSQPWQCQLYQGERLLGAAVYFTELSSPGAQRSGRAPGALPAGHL
The test is described as follows: FACS blocking assay; antibody titrated against 10 µg/ml hLAG-3-hIg binding to MHC II on Daudi cells. As for the experimental part:
The mixtures were then added and incubated with 2 ×10^5 Daudi cells in 100 μl PBS buffer at 4° C. for 30 minutes. The cells were pelleted (three minutes, 400×g), washed twice with 1×PBS buffer and repelleted, and added and incubated with a recombinant PE-labeled F(ab')2 anti-hIgG Fc (1:200, Life Technologies, USA, Cat #: H10104) at 4° C. for 30 minutes, and washed once with 1×PBS. Analysis of […] binding was carried out with the FACS flow cytometer (BD Bioscience).

The target in test [2] is T2, recombinant mouse LAG3(ECD)-his (Sino Biological, Cat #: 53069-M08H) (mouse, UniProt Q61790 24-442).
T2 construct: extracellular domain; Bought protein; also called Mouse LAG3-his; not shown: his tag
T2 sequence (looked up): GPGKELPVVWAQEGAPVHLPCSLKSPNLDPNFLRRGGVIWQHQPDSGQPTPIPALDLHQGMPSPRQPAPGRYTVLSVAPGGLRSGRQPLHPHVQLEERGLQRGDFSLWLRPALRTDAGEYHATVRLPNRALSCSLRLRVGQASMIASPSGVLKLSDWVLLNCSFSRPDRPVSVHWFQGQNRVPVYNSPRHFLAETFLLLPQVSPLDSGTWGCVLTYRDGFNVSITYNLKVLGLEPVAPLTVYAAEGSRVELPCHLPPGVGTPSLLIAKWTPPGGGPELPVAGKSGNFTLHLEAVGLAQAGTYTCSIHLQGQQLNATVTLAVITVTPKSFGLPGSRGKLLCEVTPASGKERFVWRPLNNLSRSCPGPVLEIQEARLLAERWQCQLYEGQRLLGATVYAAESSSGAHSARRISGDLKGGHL
Kind of test: ELISA, coated mouse LAG3-his. As for the experimental part:
(§1) Species-cross-reactivity of the 12 LAG3 mAbs to monkey or mouse LAG3 was further tested by direct ELISA. Briefly, 50 µl of 500 ng/ml monkey LAG3(ECD)-hFc (ACRO, CN, Cat #: LA3-05252) or mouse LAG3-his (Sino Biological, CN, Cat #:53069-M08H) was coated on 96-well ELISA plates followed by incubation with 100 µl of serially diluted anti-LAG3 antibodies (starting from 40 µg/ml). Goat anti-mouse IgG conjugated with HRP (Sigma, US, Cat #: A9309-1 ml) was added then.
In general terms: In an ELISA, binding on a coated surface is turned into a signal by an enzyme label.

The target of test [3] is T3, monkey (rhesus) LAG3 expressed on HEK293A cells (monkey (rhesus), UniProt A0A5F8A874 23-533).
T3 construct: whole, on cells; also called HEK293A/rh LAG3
T3 sequence: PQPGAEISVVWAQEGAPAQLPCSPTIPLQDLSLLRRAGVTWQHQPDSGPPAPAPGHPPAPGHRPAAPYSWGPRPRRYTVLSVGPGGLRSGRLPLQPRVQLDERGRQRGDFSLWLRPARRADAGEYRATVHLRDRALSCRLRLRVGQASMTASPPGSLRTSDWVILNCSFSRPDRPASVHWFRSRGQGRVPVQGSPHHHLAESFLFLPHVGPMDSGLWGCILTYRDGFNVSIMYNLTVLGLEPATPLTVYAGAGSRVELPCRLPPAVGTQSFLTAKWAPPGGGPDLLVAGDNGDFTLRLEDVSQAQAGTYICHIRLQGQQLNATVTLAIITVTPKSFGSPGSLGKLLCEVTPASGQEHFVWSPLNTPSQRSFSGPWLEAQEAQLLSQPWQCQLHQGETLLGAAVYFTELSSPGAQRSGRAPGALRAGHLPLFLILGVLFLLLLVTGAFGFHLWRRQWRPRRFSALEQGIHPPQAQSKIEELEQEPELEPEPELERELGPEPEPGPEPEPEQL
The test is described as follows: FACS on HEK293A/rh LAG3 cells. As for the experimental part:
Briefly, 10^5 HEK293A cells in 50 μl PBS buffers were seeded into each well of the 96-well plates and then added with 50 μl of serially diluted anti-LAG3 antibodies (5-fold dilution, starting from 40 μg/ml). After incubated at 4° C. for 1 hour, plates were washed 3 times with PBST. Then, an APC coupled Goat Anti-Mouse IgG (BioLegend, US, Cat #: 405308) diluted 500× was added to the plates. After incubation at 4° C. for 1 hour, the plates were washed with PBS for 3 times and then cell fluorescence was monitored using a FACS machine (BD).

Test [4] concerns the target T4, recombinant monkey LAG3(ECD)-hFc (ACRO, Cat #: LA3-05252) (monkey (rhesus), UniProt A0A5F8A874 23-450).
T4 construct: Bought protein; also called rhesus LAG3(ECD)-hFc; rh LAG3(ECD)-hFc; not shown: human Fc (hFc) and any linker
T4 sequence: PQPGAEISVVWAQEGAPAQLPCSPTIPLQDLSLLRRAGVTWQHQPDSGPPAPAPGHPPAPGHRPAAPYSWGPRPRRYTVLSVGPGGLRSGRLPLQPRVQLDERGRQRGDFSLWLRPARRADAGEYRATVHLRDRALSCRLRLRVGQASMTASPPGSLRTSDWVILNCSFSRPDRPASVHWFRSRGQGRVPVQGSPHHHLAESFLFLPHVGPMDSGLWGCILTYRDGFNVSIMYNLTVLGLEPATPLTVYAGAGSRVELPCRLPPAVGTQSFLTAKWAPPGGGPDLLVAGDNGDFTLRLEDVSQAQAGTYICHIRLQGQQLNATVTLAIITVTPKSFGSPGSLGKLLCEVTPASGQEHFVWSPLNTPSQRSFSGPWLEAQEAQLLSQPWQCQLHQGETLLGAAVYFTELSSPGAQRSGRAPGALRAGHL
Kind of test: ELISA, coated monkey LAG3(ECD)-hFc. The procedure: as §1

B1: mouse anti-LAG3 monoclonal antibody 101F4 (antibody, V domains shown)
VH: EVQLEQSGAELVRPGASVTLSCKASGYTFTDYEMHWVKQTPVYGLEWMGAIDPETGGIVYNQRFKGKAILTADKSSSTAYMELRSLTSEDSAVYYCTGAGWGYWGQGTTLTVSS
VL: DIVITQSPSSMYASLGERVTITCKASQDINSYLSWFQQKPGKSPKTLIYRANRLLDGVPSRFSGSGSGQDYSLTISSLEFEDMGLYYCLQYDEFPFTFGSGTKLEIK
B1: the EC50 was 13 nM in test [1], 0.39 nM in test [3] and 2.3 nM in test [4]. The binding result in test [2] is “no binding (tested: starting from 40 µg/ml)”.

B2: mouse anti-LAG3 monoclonal antibody 134G10 (antibody, V domains shown)
VH: EVQLVESGGDLVKPGGSLKLSCAASGFTFSSFGMSWVRQTPDKRLEWVGIISSGGTYTFYPDILKGRFTISRDNAKNTLYLQMSSLKSEDTAMYYCARVYSDYDGRFDYWGQGTTLTVSS
VL: DIVMTQSPSSLSVSAGEKVTMNCKSSQSLLNSGNQKNYLAWYQQKPGQPPKLLIYGASTRESGVPDRFTGSGSGTDFTLTISSVQAEDLAVYYCQNDHSYPLTFGAGTKLELK
As for B2, the EC50 turned out to be 9.3 nM in test [1], 6.5 nM in test [3] and 0.23 nM in test [4]. Besides, the binding result in test [2] is “no binding (tested: starting from 40 µg/ml)”.
